Residue numbers refer to the chain shown, from its start. Numbered stars: 1 amine (or outer) side, 2 acyl side, 3 side chain; on linkers, the order of the positions; unused ones are H or OH. Square brackets hold non-standard residues; d marks the D form. Side chains are listed from the residue outwards. Ends that are not written are not given here. γGlu = O=C(O)[C@H](CCC(=O)[*:2])N[*:1]; X70 = not defined here; x53 = not defined here; x70 = not defined here; x76 = not defined here; Aib = CC(C)(N)C(=O)O
B1: SEQ ID NO: 206 (peptide)
peptide: H[Aib]QGTFTSDLSKQK([γGlu-x70])DEQKAKLFIEWLKSGGPSSGAPPPS-NH2
modifications: reading uncertain
B2: SEQ ID NO: 175 (peptide)
peptide: H[Aib]QGTFTSDLSKQK([γGlu-X70])DEQRAKDFIEWLKSGGPSSGAPPPS-NH2
modifications: reading uncertain
B3: SEQ ID NO: 156 (peptide)
peptide: H[Aib]QGTFTSDLSKQK([γGlu-X70])DSQAAQDFIEWLKAGGPSSGAPPPS-NH2
modifications: reading uncertain
B4: SEQ ID NO: 162 (peptide)
peptide: H[Aib]QGTFTSDLSKQK([γGlu-X70])DSRRAQDFIEWLKAGGPSSGAPPPS-NH2
modifications: reading uncertain
B5: SEQ ID NO: 214 (peptide)
peptide: H[Aib]QGTFTSDLSKQK([γGlu-X70])DEEAARLFIEWLKAGGPSSGAPPPS-NH2
modifications: reading uncertain
B6: SEQ ID NO: 155 (peptide)
peptide: H[Aib]QGTFTSDLSKQK([γGlu-x53])DSQAAQDFIEWLKAGGPSSGAPPPS-NH2
modifications: reading uncertain
B7: SEQ ID NO: 226 (peptide)
peptide: H[Aib]QGTFTSDLSKQK([γGlu-γGlu-x53])DEEAARLFIEWLKAGGPSSGAPPPS-NH2
modifications: reading uncertain
B8: SEQ ID NO: 213 (peptide)
peptide: H[Aib]QGTFTSDLSKQK([γGlu-x70])DEEAAKLFIEWLKAGGPSSGAPPPS-NH2
modifications: reading uncertain
B9: SEQ ID NO: 205 (peptide)
peptide: HXQGTFTSDLSKQKESRRAQLFIEWLKAXGPSSGAPPPS
modifications: Aib at 2; K(γE-x70) at 14; dAla at 29; C-terminal NH2
B10: SEQ ID NO: 217 (peptide)
peptide: H[Aib]HGTFTSDLSKQK([γGlu-X70])EEEAARLFIEWLKAGGPSSGAPPPS-NH2
modifications: reading uncertain
B11: SEQ ID NO: 152 (peptide)
peptide: H[Aib]QGTFTSDLSKQK([γGlu-X70])DEQRAKEFIEWLKAGGPSSGAPPPS-NH2
modifications: reading uncertain
B12: SEQ ID NO: 174 (peptide)
peptide: H[Aib]QGTFTSDLSKQK([γGlu-X70])DEQRAKEFIEWLKSGGPSSGAPPPS-NH2
modifications: reading uncertain
B13: SEQ ID NO: 227 (peptide)
peptide: H[Aib]HGTFTSDLSKQK([γGlu-γGlu-x53])DEEAARLFIEWLKAGGPSSGAPPPS-NH2
modifications: reading uncertain
B14: SEQ ID NO: 208 (peptide)
peptide: HSHGTFTSDLSKQK([γGlu-x53])ESRRAQDFIEWLKAGGPSSGAPPPS-NH2
modifications: reading uncertain
B15: SEQ ID NO: 202 (peptide)
peptide: H[Aib]QGTFTSDLSKQK([γGlu-x76])ESRAAQDFIEWLKAGGPSSGAPPPS-NH2
modifications: reading uncertain
B16: SEQ ID NO: 198 (peptide)
peptide: H[Aib]QGTFTSDLSKQK([γGlu-x70])DSRRAQLFIEWLKAGGPSSGAPPPS-NH2
modifications: reading uncertain
B17: SEQ ID NO: 207 (peptide)
peptide: H[Aib]QGTFTSDLSKQK([γGlu-γGlu-x53])DEQRAKEFIEWLKSGGPSSGAPPPS-NH2
modifications: reading uncertain
B18: SEQ ID NO: 199 (peptide)
peptide: HXQGTFTSDLSKQKDEQRAKDFIEWLKAXGPSSGAPPPS
modifications: Aib at 2; K(γE-x70) at 14; dAla at 29; C-terminal NH2
B19: SEQ ID NO: 201 (peptide)
peptide: B18 peptide with R18A, D21L
modifications: Aib at 2; K(γE-x76) at 14; dAla at 29; C-terminal NH2
B20: SEQ ID NO: 210 (peptide)
peptide: B9 peptide with E15D, S16K
modifications: Aib at 2; K(γE-x70) at 14; dAla at 29; C-terminal NH2
B21: SEQ ID NO: 200 (peptide)
peptide: B18 peptide with D21L
modifications: Aib at 2; K(γE-x70) at 14; dAla at 29; C-terminal NH2
B22: SEQ ID NO: 219 (peptide)
peptide: HXHGTFTSDLSKQKEEEAARLFIEWLKAGGPSSGAPPPS
modifications: dSer at 2; K(γE-X70) at 14; C-terminal NH2

molecular target: human GLP-1 receptor (human, UniProt P43220 24-463); assay: cell-based or functional assay

Row | Binder | EC50 hGLP-1R (cAMP) [pM]
1 | B1 | 3.2
2 | B2 | 2.5
3 | B3 | 2.9
4 | B4 | 3.1
5 | B5 | 4.2
6 | B6 | 2.5
7 | B7 | 1.4
8 | B8 | 2.7
9 | B9 | 12.3
10 | B10 | 4.3
11 | B11 | 3.2
12 | B12 | 2.6
13 | B13 | 1.4
14 | B14 | 2
15 | B15 | 26.2
16 | B16 | 8.2
17 | B17 | 1.1
18 | B18 | 10.1
19 | B19 | 22.7
20 | B20 | 6.7
21 | B21 | 4.6
22 | B22 | 2.1

molecular target: human glucagon receptor (human, UniProt P47871 26-477); assay: cell-based or functional assay
Sequence (P47871 26-477): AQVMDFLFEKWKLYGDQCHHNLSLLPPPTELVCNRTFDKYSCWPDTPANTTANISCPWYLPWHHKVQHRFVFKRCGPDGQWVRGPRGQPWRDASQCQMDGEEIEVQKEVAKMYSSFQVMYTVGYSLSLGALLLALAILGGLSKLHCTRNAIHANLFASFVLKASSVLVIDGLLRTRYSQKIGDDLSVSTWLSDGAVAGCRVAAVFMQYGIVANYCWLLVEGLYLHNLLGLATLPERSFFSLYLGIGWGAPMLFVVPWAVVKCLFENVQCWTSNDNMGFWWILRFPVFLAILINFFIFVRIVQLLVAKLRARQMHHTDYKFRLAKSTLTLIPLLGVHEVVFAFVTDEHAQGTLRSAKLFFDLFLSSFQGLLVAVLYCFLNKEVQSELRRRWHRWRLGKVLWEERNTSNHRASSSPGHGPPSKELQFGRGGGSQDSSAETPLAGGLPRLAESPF

Row | Binder | EC50 hGlucagon-R (cAMP) [pM]
23 | B1 | 12.5
24 | B2 | 3.1
25 | B3 | 12.5
26 | B4 | 2.4
27 | B5 | 16
28 | B6 | 25.1
29 | B7 | 19.1
30 | B8 | 59.1
31 | B9 | 5.2
32 | B10 | 2.1
33 | B11 | 2.3
34 | B12 | 1.9
35 | B13 | 1.1
36 | B14 | 1.3
37 | B15 | 6.9
38 | B16 | 2.4
39 | B17 | 1.2
40 | B18 | 7.2
41 | B19 | 29.6
42 | B20 | 3
43 | B21 | 4.4
44 | B22 | 3.7
